Measured values: the RNAGym collection of RNA variant scans (doi:10.1093/molbev/msab373)

B1: Azoarcus group I ribozyme (parent)
chain: GUGCCUUGCGCCGGGAAACCACGCAAGGGAUGGUGUCAAAUUCGGCGAAACCUAAGCGCCCGCCCGGGCGUAUGGCAACGCCGAGCCAAGCUUCGGCGCCUGCGCCGAUGAAGGUGUAGAGACUAGACGGCACCCACCUAAGGCAAACGCUAUGGUGAAGGCAUAGUCCAGGGAGUGGCGAAAGUCACACAAACCGG

Variants of: B1
Assay: reverse-splicing fitness (ratio to wild type); higher = more active; in vitro selection; Mg2+ level not given
Procedure, shortened: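 An in vitro group I ribozyme library with randomized positions was T7-transcribed and gel-purified. In triplicate, 10 pmol RNA in EPPS pH 7.5 was reacted with 50 pmoles of a 30-nt RNA substrate for 1 h at 37 °C across several added MgCl2 levels (1–48 mM), then stopped with EDTA. Products were reverse transcribed from a substrate-complementary primer, PCR-amplified and sequenced (HiSeq 4000). Fitness is a variant's read proportion after selection over that before, normalised to wild type.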

Which reverse-splicing fitness does the source give for C82A A111G A120G A145U C150U here?
The reverse-splicing fitness was 0.0134.

With C82A A111G A120G A145U C150G as the variant, how does the reverse-splicing fitness read?
The reverse-splicing fitness was 0.00709.

Which reverse-splicing fitness does the source give for C82A A111G A120U A145G C150A C169G U176G here?
Its reverse-splicing fitness is 0.00282.

For C82A A111G A120U A145G C150A C169G U176C, which reverse-splicing fitness is on record?
Its reverse-splicing fitness is 0.00705.

Which reverse-splicing fitness does the source give for C82A A111G A120U A145G C150A C169G U176A here?
Its reverse-splicing fitness is 0.015.

With C82A A111G A120G C150A C169U U176A as the variant, how does the reverse-splicing fitness read?
Its reverse-splicing fitness is 0.0244.

For C82A A111G A120G C150A C169U U176G, which reverse-splicing fitness is on record?
The reverse-splicing fitness was 0.00838.

Which reverse-splicing fitness does the source give for C82A A111G A120G C150A C169U U176C here?
The reverse-splicing fitness was 0.0219.

For C82A A111G A120U A145C C150U C169A U176A, which reverse-splicing fitness is on record?
The reverse-splicing fitness was 0.00228.

For C82A A111G A120U A145C C150U C169A U176C, which reverse-splicing fitness is on record?
Its reverse-splicing fitness is 0.00215.

With C82A A111G A120U A145C C150U C169A U176G as the variant, how does the reverse-splicing fitness read?
The reverse-splicing fitness was 0.00215.

Which reverse-splicing fitness does the source give for C82A A111G A120G A145U C169G U176G here?
The reverse-splicing fitness was 0.00452.

For C82A A111G A120G A145U C169G U176C, which reverse-splicing fitness is on record?
The reverse-splicing fitness was 0.0158.

With C82A A111G A120G A145U C169G U176A as the variant, how does the reverse-splicing fitness read?
Its reverse-splicing fitness is 0.0122.

For C82A A111G A120U A145G C150A C169A, which reverse-splicing fitness is on record?
Its reverse-splicing fitness is 0.00676.

Which reverse-splicing fitness does the source give for C82A A111G A120U A145G C150A C169G here?
Its reverse-splicing fitness is 0.00666.

For C82A A111G A120U A145G C150A C169U, which reverse-splicing fitness is on record?
Its reverse-splicing fitness is 0.00455.

For C82A A111G A120U C150A C169G U176G, which reverse-splicing fitness is on record?
The reverse-splicing fitness was 0.00222.

For C82A A111G A120U C150A C169G U176A, which reverse-splicing fitness is on record?
Its reverse-splicing fitness is 0.00908.

Which reverse-splicing fitness does the source give for C82A A111G A120U C150A C169G U176C here?
Its reverse-splicing fitness is 0.00412.

Which reverse-splicing fitness does the source give for C82A A111G A120G C150G C169G U176G here?
Its reverse-splicing fitness is 0.00489.

For C82A A111G A120G C150G C169G U176C, which reverse-splicing fitness is on record?
The reverse-splicing fitness was 0.00515.

Which reverse-splicing fitness does the source give for C82A A111G A120G C150G C169G U176A here?
The reverse-splicing fitness was 0.00689.

With C82A A111G A120U C150G C169A as the variant, how does the reverse-splicing fitness read?
Its reverse-splicing fitness is 0.00678.

Which reverse-splicing fitness does the source give for C82A A111G A120U C150G C169G here?
Its reverse-splicing fitness is 0.00649.

With C82A A111G A120U C150G C169U as the variant, how does the reverse-splicing fitness read?
Its reverse-splicing fitness is 0.00601.

For C82A A111G A120G A145U C150U C169G U176A, which reverse-splicing fitness is on record?
Its reverse-splicing fitness is 0.014.

With C82A A111G A120G A145U C150U C169G U176C as the variant, how does the reverse-splicing fitness read?
Its reverse-splicing fitness is 0.0137.

For C82A A111G A120G A145U C150U C169G U176G, which reverse-splicing fitness is on record?
The reverse-splicing fitness was 0.00537.

Which reverse-splicing fitness does the source give for C82A A111G A120G C150A C169A U176G here?
The reverse-splicing fitness was 0.00588.

For C82A A111G A120G C150A C169A U176C, which reverse-splicing fitness is on record?
Its reverse-splicing fitness is 0.0184.

With C82A A111G A120G C150A C169A U176A as the variant, how does the reverse-splicing fitness read?
Its reverse-splicing fitness is 0.0228.

With C82A A111G A120U C150G C169U U176A as the variant, how does the reverse-splicing fitness read?
Its reverse-splicing fitness is 0.00322.

Which reverse-splicing fitness does the source give for C82A A111G A120U A145U C150U C169U U176G here?
Its reverse-splicing fitness is 0.00222.

Which reverse-splicing fitness does the source give for C82A A111G A120U A145U C150U C169U U176A here?
Its reverse-splicing fitness is 0.00273.

Which reverse-splicing fitness does the source give for C82A A111G A120U A145U C150U C169U U176C here?
Its reverse-splicing fitness is 0.00305.

For C82A A111G A120G C169G U176C, which reverse-splicing fitness is on record?
Its reverse-splicing fitness is 0.0229.

For C82A A111G A120G C169G U176G, which reverse-splicing fitness is on record?
Its reverse-splicing fitness is 0.00458.

With C82A A111G A120G C169G U176A as the variant, how does the reverse-splicing fitness read?
The reverse-splicing fitness was 0.0226.

With C82A A111G A120U C150G C169G U176A as the variant, how does the reverse-splicing fitness read?
Its reverse-splicing fitness is 0.00567.

For C82A A111G A120U C150G C169G U176C, which reverse-splicing fitness is on record?
The reverse-splicing fitness was 0.0034.

For C82A A111G A120U C150G C169G U176G, which reverse-splicing fitness is on record?
Its reverse-splicing fitness is 0.00237.

For C82A A111G A120G C150G C169U U176G, which reverse-splicing fitness is on record?
The reverse-splicing fitness was 0.00657.

With C82A A111G A120G C150G C169U U176C as the variant, how does the reverse-splicing fitness read?
Its reverse-splicing fitness is 0.0135.

Which reverse-splicing fitness does the source give for C82A A111G A120G C150G C169U U176A here?
Its reverse-splicing fitness is 0.0124.

For C82A A111G A120U A145G C150A C169U U176C, which reverse-splicing fitness is on record?
The reverse-splicing fitness was 0.00493.

For C82A A111G A120U A145G C150A C169U U176G, which reverse-splicing fitness is on record?
The reverse-splicing fitness was 0.00288.

Which reverse-splicing fitness does the source give for C82A A111G A120U A145G C150A C169U U176A here?
The reverse-splicing fitness was 0.0049.

With C82A A111G A120G A145U C150U C169A as the variant, how does the reverse-splicing fitness read?
Its reverse-splicing fitness is 0.0103.

For C82A A111G A120G A145U C150U C169U, which reverse-splicing fitness is on record?
The reverse-splicing fitness was 0.00852.

For C82A A111G A120G A145U C150U C169G, which reverse-splicing fitness is on record?
The reverse-splicing fitness was 0.0104.

Which reverse-splicing fitness does the source give for C82A A111G A120U A145G C169G U176C here?
Its reverse-splicing fitness is 0.00421.

With C82A A111G A120U A145G C169G U176G as the variant, how does the reverse-splicing fitness read?
Its reverse-splicing fitness is 0.00191.

For C82A A111G A120U A145G C169G U176A, which reverse-splicing fitness is on record?
The reverse-splicing fitness was 0.00375.

For C82A A111G A120G C150A C169U, which reverse-splicing fitness is on record?
Its reverse-splicing fitness is 0.00823.

With C82A A111G A120G C150A C169G as the variant, how does the reverse-splicing fitness read?
Its reverse-splicing fitness is 0.00987.

For C82A A111G A120G C150A C169A, which reverse-splicing fitness is on record?
Its reverse-splicing fitness is 0.0103.

Which reverse-splicing fitness does the source give for C82A A111G A120U C150A U176G here?
The reverse-splicing fitness was 0.00282.

With C82A A111G A120U C150A U176A as the variant, how does the reverse-splicing fitness read?
Its reverse-splicing fitness is 0.00595.

With C82A A111G A120U C150A U176C as the variant, how does the reverse-splicing fitness read?
The reverse-splicing fitness was 0.00802.

Which reverse-splicing fitness does the source give for C82A A111G A120G A145U C169A U176G here?
The reverse-splicing fitness was 0.0046.

For C82A A111G A120G A145U C169A U176C, which reverse-splicing fitness is on record?
Its reverse-splicing fitness is 0.0121.

For C82A A111G A120G A145U C169A U176A, which reverse-splicing fitness is on record?
Its reverse-splicing fitness is 0.0117.

For C82A A111G A120U A145G C150U U176A, which reverse-splicing fitness is on record?
The reverse-splicing fitness was 0.0096.

For C82A A111G A120U A145G C150U U176G, which reverse-splicing fitness is on record?
The reverse-splicing fitness was 0.00409.

Which reverse-splicing fitness does the source give for C82A A111G A120U A145G C150U U176C here?
The reverse-splicing fitness was 0.0133.

For C82A A111G A120G C169A U176C, which reverse-splicing fitness is on record?
Its reverse-splicing fitness is 0.0213.

Which reverse-splicing fitness does the source give for C82A A111G A120G C169A U176G here?
The reverse-splicing fitness was 0.00477.

For C82A A111G A120G C169A U176A, which reverse-splicing fitness is on record?
Its reverse-splicing fitness is 0.0178.

With C82A A111G A120U C150A C169U U176C as the variant, how does the reverse-splicing fitness read?
Its reverse-splicing fitness is 0.00484.

For C82A A111G A120U C150A C169U U176G, which reverse-splicing fitness is on record?
Its reverse-splicing fitness is 0.00235.

With C82A A111G A120U C150A C169U U176A as the variant, how does the reverse-splicing fitness read?
Its reverse-splicing fitness is 0.00585.

Which reverse-splicing fitness does the source give for C82A A111G A120U A145G C150A U176A here?
Its reverse-splicing fitness is 0.00782.

Which reverse-splicing fitness does the source give for C82A A111G A120U A145G C150A U176G here?
The reverse-splicing fitness was 0.00419.

With C82A A111G A120U A145G C150A U176C as the variant, how does the reverse-splicing fitness read?
The reverse-splicing fitness was 0.00808.

With C82A A111G A120U A145U C150G U176G as the variant, how does the reverse-splicing fitness read?
Its reverse-splicing fitness is 0.0023.

For C82A A111G A120U A145U C150G U176C, which reverse-splicing fitness is on record?
Its reverse-splicing fitness is 0.00587.

Which reverse-splicing fitness does the source give for C82A A111G A120U A145U C150G U176A here?
Its reverse-splicing fitness is 0.0037.

For C82A A111G A120U A145G C169U U176G, which reverse-splicing fitness is on record?
Its reverse-splicing fitness is 0.00173.

Which reverse-splicing fitness does the source give for C82A A111G A120U A145G C169U U176A here?
Its reverse-splicing fitness is 0.00366.

With C82A A111G A120U A145G C169U U176C as the variant, how does the reverse-splicing fitness read?
The reverse-splicing fitness was 0.00338.

With C82A A111G A120G A145U C150U C169U U176G as the variant, how does the reverse-splicing fitness read?
The reverse-splicing fitness was 0.00555.

For C82A A111G A120G A145U C150U C169U U176C, which reverse-splicing fitness is on record?
The reverse-splicing fitness was 0.0152.

For C82A A111G A120G A145U C150U C169U U176A, which reverse-splicing fitness is on record?
The reverse-splicing fitness was 0.0192.
